A protein production outcome set (Wang et al. 2014)

Experiment: label from the status in PepcDB records

For “MNYSTLTSVLLCLLLGAPAWADHYQVVTEEWAPYNYEENGQLTGMTTEIVRAIMAVSGNDFNIVLAPSMRASHTLQMRPKTIMYSMFRTPEREVLYKWVGPIVEESVHPYQLATAAPVTSLEQLLHAPQITTRHAGLLPDMLQSLGFKNLDKSAAQSVQLYRMLLNGRTAIIIGDTDAGVAYQSRQLNIAPGTLRQIPIELYRSSLYIAFSRDCEDELVASWARALETLRQSGELERIQRRYEQLVGQ”, the protein production was “failed”.
In the case of “MFQDNPLLAQLKQQIQEKLPKKEGTIKATERGFGFLESDDKKKSIFIPPAQMKKVMHGDKVVALIRTENEKEQAEPDQLIEQSITRFIGRIQMFKKRLQVMPDHPSLKNAIKAKTRKGVNPETLKEGDWVVAELTQHPLKGDQGFQCDITHKITDSDDKIAPWWVTLAQNDLPNSEPEGIEHWEIKDDADLVRVDMTATPFVTIDGESTKDMDDALYIKKLENGSFELTIAIADPTAYITPDDSMDKVARERGYTIYLPGRNIPMLPRDLSDELCSLIEGQERPALCCTVLVDANGNIQEDSINFFAATIKSHARLAYDHVSDFLETGSCDKWQPNDTIAQVVTELYEFAQVRTTWRETHAVIFPDRPDYRFELSEDNDVIAIHADMRRTANKLVEEAMVTANICAGKTLRAAFNMGVFNSHAGIKSDKLKDVVEIVNQLEGVDFTEEQIATLEGFSELRRLLGKQPTSYLDARIRKFQTYSETGNEPLPHYAMGLDIYATWTSPIRKYSDMINHRMLKAHILGKEPVQRPDDIVGEELAISRRFHRMAERNVSDWLYCRTLASEVEKETKYTAEIFDINRAGMRVRLIENGAAAFIPGSLIVDNKERIECNADQGIISIDKHETFKLGDQLHVVLAEVKEDTRNMVAKPLQAFPAPEPEEAPVVENEDATTNATTSADA”, the protein production was “failed”.
In the case of “MSEAEAKLWQHLRAGRLNGYKFRRQQPMGNYIVDFMCVTPKLIVEADGGQHAEQAVYDHARTVYLNSLGFTVLRFWNHEILQQTNDVLAEILRVLQELEKQ”, the protein production was “not failed”.
For “MLNDQEVLSMSSVSLSPLFRRSIGFDRLNDLFDYAMQSETPNYPPYNIEKDGENNYRILIASAGFDQDELRIHLENQVLTISGQPDSEQVDKNIEYLHKGIARRAFKLSLRLDEHIEVQQADYENGLLKIELQRIIPEEKMPRQIPIGQSKSIKNIESSKIVNS”, the protein production was “failed”.
In the case of “MYTKQHTIKAPVKVSGVGLHTGAQVNLTFVPAPINHGILFKRVDLPDQPVVECDVDNVVDVSRGTSIEKNGARINTVEHALAALVGLQIDNILIELDGPEIPIMDGSSLPFIEAINAIGLEEQNALRNFFEVPHGIFFQDAEKNIELAALPLDDYRVTVMVDYNSPVLGSQHATLNNINQFEKEIASCRTFCFLHELEMLHKQNLIKGGDLNNAIVIVDRIVKDDELDSLAKLFGKDKVEVKKEGILNNIELRYKNEPARHKLLDVVGDLALVGRPLKAQIMAARPGHASNVAFAKKLKRVMMDSRQKAPHYDITQPSVLDVNQIYKLLPHRYPFKLVDKIVHLDENMIIGVKNVTINEPFFEGHFPGNPVMPGVLQIEAMAQTGGIFVMQSVPDPENYWTYFLSIESAKFRRMVVPGDTLVFKCELTAPIKRGIAKMQGQAYVGGNLVCEASLTASIVKKK”, the protein production was “failed”.
In the case of “MPSLSVRGSLLLVCALAVTGCASLQSQDQINYAHCRMVGQASKAEKFDVVLQEADLCLEKNQLSQPMQSLVYWLKSDAYASFKRYPEAIAAKEKSIELGPKPDARAVLDLSRLYREAGNPQKALELVQSNLDNNLGEAGKGSGFNMPTYYHLGQTLYDLGRYREAAEAYSTGLLKQPDYAWAFYHRGLAYDKLGQTDDARADFAQFAKLVNQKYVEPQHQAKLAEYKIKLP”, the protein production was “failed”.
In the case of “MTGAETGSHFRRHALDAKPIGMSDHEQTKLIATAMNEGSPQAKALGFTTLEIGDAVALLKVPYRPEIIGDPETGVIAGGVVTTLLDHASGQAVHAAMETWTSIATLDLRIDYMRAAEPGLDVMARAHCYKLTRSVAFVRAVAYDRDPEDPIATGQATFMLDSSAGKKAGANLKPSRQQRSKTGGVDQ”, the protein production was “failed”.
In the case of “MILEDLNQLPAAEASHTFMQCSASAWVKKMVTARPFSSELAIKKAADDAWQGLTEQDYFEAFEGHPKIGDVSSLRAKYANTKELAGNEQGLVKEANDDVLEVLSQGNSDYEKKFGFIFIVCATGKSAKQMSDLLQARLPNNKTQELVNAAEEQRKIFQLRIDKALAEGLEHHHHHH”, the protein production was “failed”.
In the case of “MIKEWATVVSWQNGQALVSCDVKASCSSCASRAGCGSRVLNKLGPQTTHTIVVPCDEPLVPGQKVELGIAEGSLLSSALLVYMSPLVGLFLIASLFQLLFASDVAALCGAILGGIGGFLIARGYSRKFAARAEWQPIILSVALPPGLVRFETSSEDASQ”, the protein production was “failed”.
